Measured values: US12053530B2, “Plectin-1 binding antibodies and uses thereof” (ZIELBIO, INC., priority 2017, dated 2024)

Target: plectin-1 (human recombinant protein) (Homo sapiens, UniProt Q15149)
Experiment: Affinity of anti-plectin-1 antibodies (FIGS. 1A-1B)
Assay type: binding
Conditions: human recombinant protein and pancreatic cell lines
Source text: FIGS. 1A-1B show representative data for affinity and specificity of an anti-plec1 antibody on human recombinant protein (FIG. 1A) and human (YapC and L3.6pl) and mouse (Han14.3) pancreatic cell lines (FIG. 1B).

plectin-1 (human recombinant protein), sequence (Q15149 whole entry): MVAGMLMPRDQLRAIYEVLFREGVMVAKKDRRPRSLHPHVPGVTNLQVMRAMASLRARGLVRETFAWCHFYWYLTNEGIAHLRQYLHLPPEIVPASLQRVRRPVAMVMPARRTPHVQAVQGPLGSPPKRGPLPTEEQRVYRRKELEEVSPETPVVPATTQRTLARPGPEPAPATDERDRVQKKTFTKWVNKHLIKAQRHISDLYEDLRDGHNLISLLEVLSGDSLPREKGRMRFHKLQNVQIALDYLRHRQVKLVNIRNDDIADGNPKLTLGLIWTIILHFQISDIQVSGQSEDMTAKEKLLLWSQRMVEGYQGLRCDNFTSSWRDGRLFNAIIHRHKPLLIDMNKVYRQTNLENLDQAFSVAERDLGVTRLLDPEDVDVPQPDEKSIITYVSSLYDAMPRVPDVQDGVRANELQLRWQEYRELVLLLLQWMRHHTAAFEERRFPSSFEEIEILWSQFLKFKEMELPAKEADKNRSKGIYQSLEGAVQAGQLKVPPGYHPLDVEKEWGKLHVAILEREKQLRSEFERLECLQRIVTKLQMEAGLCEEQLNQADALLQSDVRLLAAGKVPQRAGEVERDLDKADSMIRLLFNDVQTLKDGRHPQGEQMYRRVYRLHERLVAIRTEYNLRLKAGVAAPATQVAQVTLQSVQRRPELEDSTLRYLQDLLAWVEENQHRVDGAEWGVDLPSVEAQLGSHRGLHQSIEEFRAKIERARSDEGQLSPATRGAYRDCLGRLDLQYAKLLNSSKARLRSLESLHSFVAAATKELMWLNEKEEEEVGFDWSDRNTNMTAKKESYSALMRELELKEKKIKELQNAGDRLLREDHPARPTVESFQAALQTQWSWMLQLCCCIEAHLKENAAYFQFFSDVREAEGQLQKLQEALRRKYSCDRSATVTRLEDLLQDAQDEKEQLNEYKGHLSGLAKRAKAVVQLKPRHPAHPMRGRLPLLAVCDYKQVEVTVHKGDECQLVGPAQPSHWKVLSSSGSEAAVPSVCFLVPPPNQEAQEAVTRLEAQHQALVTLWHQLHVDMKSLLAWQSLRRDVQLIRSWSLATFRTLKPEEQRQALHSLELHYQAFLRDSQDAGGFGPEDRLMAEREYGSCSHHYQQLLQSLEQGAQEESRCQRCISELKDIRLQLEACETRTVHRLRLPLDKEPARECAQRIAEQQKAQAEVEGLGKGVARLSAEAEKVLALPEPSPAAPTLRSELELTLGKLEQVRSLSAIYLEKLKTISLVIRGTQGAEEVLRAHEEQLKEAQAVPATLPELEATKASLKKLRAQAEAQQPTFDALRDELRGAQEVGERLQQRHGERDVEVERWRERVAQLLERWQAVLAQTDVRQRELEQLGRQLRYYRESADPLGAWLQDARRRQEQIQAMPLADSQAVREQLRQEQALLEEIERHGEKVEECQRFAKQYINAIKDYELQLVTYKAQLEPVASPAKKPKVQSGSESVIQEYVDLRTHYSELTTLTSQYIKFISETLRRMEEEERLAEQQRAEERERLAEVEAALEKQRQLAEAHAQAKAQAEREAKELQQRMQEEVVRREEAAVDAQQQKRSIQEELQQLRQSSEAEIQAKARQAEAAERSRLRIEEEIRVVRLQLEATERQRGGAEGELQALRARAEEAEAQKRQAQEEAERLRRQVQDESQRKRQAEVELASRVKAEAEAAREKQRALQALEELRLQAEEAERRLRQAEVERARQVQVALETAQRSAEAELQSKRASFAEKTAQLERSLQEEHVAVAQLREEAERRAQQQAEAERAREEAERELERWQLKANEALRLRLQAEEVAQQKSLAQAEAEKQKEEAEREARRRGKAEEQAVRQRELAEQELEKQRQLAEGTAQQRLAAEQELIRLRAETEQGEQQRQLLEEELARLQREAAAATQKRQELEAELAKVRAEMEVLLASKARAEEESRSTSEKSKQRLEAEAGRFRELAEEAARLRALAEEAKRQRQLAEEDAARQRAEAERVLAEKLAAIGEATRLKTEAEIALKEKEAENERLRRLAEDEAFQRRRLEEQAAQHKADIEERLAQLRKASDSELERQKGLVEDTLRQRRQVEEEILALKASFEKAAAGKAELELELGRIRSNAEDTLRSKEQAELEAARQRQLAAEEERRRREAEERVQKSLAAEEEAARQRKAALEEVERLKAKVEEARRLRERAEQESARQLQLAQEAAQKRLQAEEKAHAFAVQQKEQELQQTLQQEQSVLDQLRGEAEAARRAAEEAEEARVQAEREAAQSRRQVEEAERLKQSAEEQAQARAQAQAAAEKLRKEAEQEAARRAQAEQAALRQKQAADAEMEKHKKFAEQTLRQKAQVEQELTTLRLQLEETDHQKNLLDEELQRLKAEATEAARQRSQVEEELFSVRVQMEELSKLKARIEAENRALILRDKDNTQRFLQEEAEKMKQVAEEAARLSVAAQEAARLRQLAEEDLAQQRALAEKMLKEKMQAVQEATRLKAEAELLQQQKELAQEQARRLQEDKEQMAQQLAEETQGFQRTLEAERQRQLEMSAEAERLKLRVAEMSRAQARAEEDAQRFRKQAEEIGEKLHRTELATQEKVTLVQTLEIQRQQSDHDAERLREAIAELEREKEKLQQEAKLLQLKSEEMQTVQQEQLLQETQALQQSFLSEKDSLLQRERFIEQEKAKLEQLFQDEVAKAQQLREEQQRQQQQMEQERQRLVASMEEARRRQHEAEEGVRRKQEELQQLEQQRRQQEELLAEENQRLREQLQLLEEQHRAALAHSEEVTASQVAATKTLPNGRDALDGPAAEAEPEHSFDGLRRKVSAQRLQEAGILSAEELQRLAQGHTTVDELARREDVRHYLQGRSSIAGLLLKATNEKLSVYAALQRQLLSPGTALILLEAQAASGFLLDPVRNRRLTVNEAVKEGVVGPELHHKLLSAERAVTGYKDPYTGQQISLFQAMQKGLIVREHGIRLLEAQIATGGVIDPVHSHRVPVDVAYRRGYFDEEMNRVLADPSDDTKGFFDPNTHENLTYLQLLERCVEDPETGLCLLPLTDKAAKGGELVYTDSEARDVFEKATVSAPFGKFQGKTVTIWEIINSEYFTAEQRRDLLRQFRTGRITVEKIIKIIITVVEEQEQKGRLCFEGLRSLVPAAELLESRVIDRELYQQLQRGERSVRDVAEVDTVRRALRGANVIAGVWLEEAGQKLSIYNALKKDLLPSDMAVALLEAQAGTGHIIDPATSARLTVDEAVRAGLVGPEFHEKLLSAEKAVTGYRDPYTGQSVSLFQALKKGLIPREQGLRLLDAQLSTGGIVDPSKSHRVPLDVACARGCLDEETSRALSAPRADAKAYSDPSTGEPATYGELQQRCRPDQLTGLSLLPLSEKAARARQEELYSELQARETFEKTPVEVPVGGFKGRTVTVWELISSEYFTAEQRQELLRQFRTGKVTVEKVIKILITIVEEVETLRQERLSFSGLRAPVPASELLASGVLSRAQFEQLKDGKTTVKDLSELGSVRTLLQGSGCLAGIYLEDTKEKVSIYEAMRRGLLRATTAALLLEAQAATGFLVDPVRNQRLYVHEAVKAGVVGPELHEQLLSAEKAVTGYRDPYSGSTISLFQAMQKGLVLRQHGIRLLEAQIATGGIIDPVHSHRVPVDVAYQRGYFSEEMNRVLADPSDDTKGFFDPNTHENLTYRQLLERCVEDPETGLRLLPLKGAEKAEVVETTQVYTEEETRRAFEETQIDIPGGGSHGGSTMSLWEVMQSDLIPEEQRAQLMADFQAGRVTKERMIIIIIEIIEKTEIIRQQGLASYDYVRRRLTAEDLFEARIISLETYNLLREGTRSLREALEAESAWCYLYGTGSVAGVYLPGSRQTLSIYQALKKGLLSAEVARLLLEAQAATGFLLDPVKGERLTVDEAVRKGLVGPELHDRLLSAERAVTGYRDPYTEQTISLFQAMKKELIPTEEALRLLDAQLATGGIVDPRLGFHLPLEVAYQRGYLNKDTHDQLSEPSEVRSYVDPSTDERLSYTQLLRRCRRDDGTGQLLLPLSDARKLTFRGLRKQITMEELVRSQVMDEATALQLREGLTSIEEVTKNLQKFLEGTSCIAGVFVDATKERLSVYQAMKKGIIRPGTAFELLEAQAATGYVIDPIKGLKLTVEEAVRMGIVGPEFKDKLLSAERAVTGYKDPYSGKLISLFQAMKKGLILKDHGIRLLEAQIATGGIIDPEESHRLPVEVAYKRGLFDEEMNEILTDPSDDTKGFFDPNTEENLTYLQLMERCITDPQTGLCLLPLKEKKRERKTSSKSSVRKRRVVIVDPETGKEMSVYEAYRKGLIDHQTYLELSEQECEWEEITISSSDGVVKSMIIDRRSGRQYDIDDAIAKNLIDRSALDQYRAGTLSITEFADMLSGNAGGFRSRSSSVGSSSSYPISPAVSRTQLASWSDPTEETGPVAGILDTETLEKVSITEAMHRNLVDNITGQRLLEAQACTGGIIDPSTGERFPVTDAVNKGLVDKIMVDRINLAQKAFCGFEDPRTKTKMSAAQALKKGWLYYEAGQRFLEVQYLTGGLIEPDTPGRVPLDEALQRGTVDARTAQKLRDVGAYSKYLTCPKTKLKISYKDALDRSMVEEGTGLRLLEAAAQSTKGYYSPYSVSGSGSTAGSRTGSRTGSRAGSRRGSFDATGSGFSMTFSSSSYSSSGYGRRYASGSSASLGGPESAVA

B1: Pab2: anti-plectin-1 antibody; heavy chain variable region SEQ ID NO: 23, light chain variable region SEQ ID NO: 45 (antibody, V domains shown)
VH: EVQLVESGGDLVKPGGSLKLSCAASGFTFSRYGMSWVRQTPDKRLEWVATISIGGTYTYYPDSMKGRFTISRDNAKNTLYLQMSSLKSEDTAMYYCARRGYGNYSYYGMDYWGQGTSVTVSS
VL: DIVMTQAAFSNPVTLGTSASISCRSSKSLLHSNGITYLYWYLQKPGQSPQLLIYQMSNLASGVPDRFSSSGSGTDFTLRISRVEAEDVGVYYCAQNLELPLTFGAGTKLELK
**Q.** With B1 as the molecule, how does the “affinity among anti-plectin-1 antibodies tested” value read?
**A.** highest affinity
